Series [1] addresses T1, CRP (N-his-CRP) (Shewanella oneidensis MR-1) (UniProt Q8EJ49).
T1 sequence: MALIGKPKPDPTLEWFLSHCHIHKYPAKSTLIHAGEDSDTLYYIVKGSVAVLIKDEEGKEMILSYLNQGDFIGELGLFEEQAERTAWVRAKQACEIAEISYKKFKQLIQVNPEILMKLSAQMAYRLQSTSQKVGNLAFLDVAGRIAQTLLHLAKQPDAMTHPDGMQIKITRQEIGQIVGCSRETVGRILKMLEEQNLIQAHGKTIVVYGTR
In words: EMSA. The note with it: 20 ul: 2 nM Cy3-labeled probe, 50 ng N-his-CRP, 50 uM cAMP, buffer as in Kasai et al. 2015 (salt, pH, temperature not given). Background: In EMSA bound probe runs differently from free probe, usually more slowly.

The target in series [2] is CRP (N-his-CRP) (Shewanella oneidensis MR-1, UniProt Q8EJ49 1-211). In words: EMSA; 50 uM cAMP; EMSA, 20 ul: 2 nM Cy3-labeled probe, 50 ng N-his-CRP, 50 uM cAMP; buffer as in Kasai et al. 2015 (salt, pH, temperature not given). The note with it: protein: recombinant; tags: N-terminal His tag; chain copies: 2; label: 5'-Cy3 (forward strand); blunt.

Regarding “GGATCAGTTAATTGCAATACTGATAGCTAATTTAATGAAAATTTCCTTTTTTATAACTATCTGACATGTTTTTTAAAAAAATATTTGAATGGAGTTATATATACCCCACTCTTTAAGTGACA (double strand) [PBlldP1]”, the binding result in series [1] is given as “no binding”.

Take “GGATCAGTTAATTGCAATACTGATAGCTAATTTAATGAAAATTTCCTTTTTTATAACTATCTGACATGTTTTTTAAAAAAATATTTGAATGGAGTTATATATACCCCACTCTTTAAGTGACACCGATCACAGTTAAGAAAATCCCATGAGAGAAGCCTCCCGCAGCACTGTAAATTAGCATT (double strand) [PBlldP2]”: the binding entry in series [1] is “binds”.

B1: PBlldP3m (dsDNA)
DNA 1: ATATACCCCACTCTTTACCCCCCACCGAGGGGGGTTAAGAAAATCCCATG
DNA 2: CATGGGATTTTCTTAACCCCCCTCGGTGGGGGGTAAAGAGTGGGGTATAT
In the case of B1, the binding result in series [2] was “no binding”.

B2: PBlldP3 (dsDNA)
DNA 1: ATATACCCCACTCTTTAAGTGACACCGATCACAGTTAAGAAAATCCCATG
DNA 2: CATGGGATTTTCTTAACTGTGATCGGTGTCACTTAAAGAGTGGGGTATAT
For B2, the binding result in series [2] is on record as “binds”.
